T1: human GLP-1R (human), P43220
T1 chain: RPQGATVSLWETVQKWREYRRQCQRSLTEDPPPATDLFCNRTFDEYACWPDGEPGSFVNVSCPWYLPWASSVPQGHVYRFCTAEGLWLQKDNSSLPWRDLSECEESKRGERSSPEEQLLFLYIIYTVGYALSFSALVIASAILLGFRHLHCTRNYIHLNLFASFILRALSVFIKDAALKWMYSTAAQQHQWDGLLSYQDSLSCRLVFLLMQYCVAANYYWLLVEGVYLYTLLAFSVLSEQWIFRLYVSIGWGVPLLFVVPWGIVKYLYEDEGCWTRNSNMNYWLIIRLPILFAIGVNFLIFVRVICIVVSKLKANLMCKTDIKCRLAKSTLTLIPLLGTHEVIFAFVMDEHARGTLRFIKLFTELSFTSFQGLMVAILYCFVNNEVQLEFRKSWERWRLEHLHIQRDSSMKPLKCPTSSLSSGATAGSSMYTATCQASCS

T2: human GIPR (human), P48546
T2 chain: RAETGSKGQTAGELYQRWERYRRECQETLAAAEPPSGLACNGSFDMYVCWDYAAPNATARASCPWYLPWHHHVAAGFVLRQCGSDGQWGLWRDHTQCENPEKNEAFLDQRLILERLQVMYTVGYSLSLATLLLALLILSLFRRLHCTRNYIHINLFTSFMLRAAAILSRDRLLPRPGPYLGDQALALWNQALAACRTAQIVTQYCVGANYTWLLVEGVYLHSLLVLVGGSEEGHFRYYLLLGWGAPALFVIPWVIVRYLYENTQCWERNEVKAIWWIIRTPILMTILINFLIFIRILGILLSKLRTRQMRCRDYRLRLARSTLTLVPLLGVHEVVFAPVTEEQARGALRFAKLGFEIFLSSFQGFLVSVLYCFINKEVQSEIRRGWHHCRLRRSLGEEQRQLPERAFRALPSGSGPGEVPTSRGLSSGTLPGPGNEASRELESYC

B1: Compound 134 (peptide)
peptide: Me-Y[Aib]EGTFISDYSIALDRIAQQN[αMeF]VNWLLAQRPSSGAPPPSR
modifications: not fully specified (residue 1, C-terminus); ends and bridges not checked
B2: Compound 136 (peptide)
peptide: Me-Y[Aib]EGTFISDYSIALDRIAQ[Aib]SFVNWLLAQRPSSGAPPPSR
modifications: not fully specified (residue 1, C-terminus); ends and bridges not checked
B3: Compound 185 (peptide)
peptide: Y[Aib]EGTFISDYSK([PEG2′-Tridecanoyl])ALDRIAQQDFVNWLLAQRPSSGAPPPSR
modifications: ends and bridges not checked
B4: Compound 180 (peptide)
peptide: Y[Aib]EGTFISDYSK([PEG2′-Lauroyl])ALDRIHQQDFVNWLLAQRPSSGAPPPSR
modifications: ends and bridges not checked
B5: Compound 176 (peptide)
peptide: Y[Aib]EGTFISDYSK([PEG(2)-Stearoyl])ALDRIHQQDFVNWLLAQRPSSGAPPPS
modifications: ends and bridges not checked
B6: Compound 194 (peptide)
peptide: Y[Aib]EGTFISDYSK([PEG(2)-Lauroyl])ALDRIAQQDFVN[αMeF]LLAQRPSSGAPPPSR
modifications: ends and bridges not checked
B7: Compound 163 (peptide)
peptide: Y[Aib]EGTVVSLYSI[Aib]LDKQAQ[Aib]EFVKWLLKGK(Pal)
modifications: ends and bridges not checked
B8: Compound 260 (peptide)
peptide: Y[Aib]EGTVVSLYSK([Gly-Gly-Gly-Gly-C20 diacid])[Aib]LDRQAQ[Aib]EFVK(Ac)WLLAQR
modifications: ends and bridges not checked
B9: Compound 173 (peptide)
peptide: Y[Aib]EGTFISDYSK([PEG(2)-Ac])ALDRIHQQDFVNWLLAQRPSSGAPPPS
modifications: ends and bridges not checked
B10: Compound 106 (peptide)
peptide: [NMeY][Aib]EGTFISDYSI[dIva]LDR[Aib]AQ[Aib]N[αMeF]VNWLLAQRPSSGAPPPSR
modifications: not fully specified (N-terminus, C-terminus); ends and bridges not checked
B11: Compound 152 (peptide)
peptide: Ac-Y[Aib]EGTFISDYSI[dIva]LDRIAQ[Aib]NFVNW[Iva]LAQRPSSGAPPPSR
modifications: ends and bridges not checked
B12: Compound 159 (peptide)
peptide: Y[Aib]EGTVVSLYSK(Pal)[Aib]LDKQAQ[Aib]EFVKWLLAQK
modifications: ends and bridges not checked
B13: Compound 188 (peptide)
peptide: Y[Aib]EGTFISDYSK([PEG2′-Dda])ALDRIAQQDFVNWLLAQRPSSGAPPPSR
modifications: ends and bridges not checked
B14: Compound 179 (peptide)
peptide: Y[Aib]EGTFISDYSK([PEG2′-Hexanoyl])ALDRIHQQDFVNWLLAQRPSSGAPPPSR
modifications: ends and bridges not checked
B15: Compound 195 (peptide)
peptide: Y[Aib]EGTFISDYSK([PEG(2)-Lauroyl])ALDRIAQQD[αMeF]VNWLLAQRPSSGAPPPSR
modifications: ends and bridges not checked
B16: Compound 196 (peptide)
peptide: Y[Aib]EGTFISDYSK([PEG(2)-Lauroyl])ALDRIAQQSFVNWLLAQRPSSGAPPPSR
modifications: ends and bridges not checked
B17: Compound 191 (peptide)
peptide: Y[Aib]EGTFISDYSK([PEG(2)-Lauroyl])ALDRIAQQDFVNWLLAQRPSSGAPPPS
modifications: ends and bridges not checked
B18: Compound 160 (peptide)
peptide: Y[Aib]EGTVVSLYSI[Aib]LDKQAQ[Aib]EFVKWLLAQKK([PEG(2)-Pal])
modifications: ends and bridges not checked
B19: Compound 137 (peptide)
peptide: Me-Y[Aib]EGTFISDYSIALDR[Aib]AQQSFVNWLLAQRPSSGAPPPSR
modifications: not fully specified (residue 1, C-terminus); ends and bridges not checked
B20: Compound 158 (peptide)
peptide: Y[Aib]EGTVVSLYSK([PEG(2)-Pal])[Aib]LDKQAQ[Aib]EFVKWLLAQK
modifications: ends and bridges not checked
B21: Compound 181 (peptide)
peptide: Y[Aib]EGTFISDYSK([PEG2′-Stearoyl])ALDRIHQQDFVNWLLAQRPSSGAPPPSR
modifications: ends and bridges not checked
B22: Compound 124 (peptide)
peptide: [NMeY][Aib]EGTFISDYSIALDRIAQ[Aib]SFVNW[Iva]LAQRPSSGAPPPSR
modifications: not fully specified (N-terminus, C-terminus); ends and bridges not checked
B23: Compound 178 (peptide)
peptide: Y[Aib]EGTFISDYSK([PEG2′-Ac])ALDRIHQQDFVNWLLAQRPSSGAPPPSR
modifications: ends and bridges not checked
B24: Compound 177 (peptide)
peptide: Y[Aib]EGTFISDYSK([PEG(2)-Pal])ALDRIHQQDFVNWLLAQRPSSGAPPPSR
modifications: ends and bridges not checked

Non-standard residues stand in square brackets, D forms with d. Groups on a side chain read outwards from the residue. Primed or numbered codes have the meaning given here. No end group written: not given here. *: point of attachment. C20 diacid = O=C(O)CCCCCCCCCCCCCCCCCCC(=O)*; NMeY = CN[C@@H](Cc1ccc(O)cc1)C(=O)O; Stearoyl = CCCCCCCCCCCCCCCCCC(=O)*; Tridecanoyl = CCCCCCCCCCCCC(=O)*; αMeF = C[C@](N)(Cc1ccccc1)C(=O)O; Lauroyl = CCCCCCCCCCCC(=O)*; dIva = CC[C@@](C)(N)C(=O)O; Iva = CC[C@](C)(N)C(=O)O; PEG2′ = not defined here; Dda = not defined here; Hexanoyl = CCCCCC(=O)*; Aib = CC(C)(N)C(=O)O

One assay concerns the target T1, human GLP-1R (human), P43220.
Test: not given
On to B1, for which the Agonist activity (EC50, M) is greater than 1e-06 M.
Still for that read-out and setting: next, B2: 2.1e-07 M; B3: 2.6e-08 M; B4: greater than 1e-06 M.
The same measure, in the same setting: the figure for B5 is greater than 1e-06 M; for B6 it is 2.5e-08 M; for B7 it is greater than 1e-06 M.
On the same count and under the same terms, the figure for B8 is greater than 1e-06 M.
As for B9, the Agonist activity (EC50, M) is greater than 1e-06 M.
On the same count and under the same terms, the figure for B10 is greater than 1e-06 M; for B11 it is greater than 1e-06 M.
Molecule B12 yielded an Agonist activity (EC50, M) greater than 1e-06 M.
Same read-out and setting: next, B13: 2e-07 M.
On the same count and under the same terms, next, B14: greater than 1e-06 M; B15: 1e-07 M; B16: 4.4e-08 M.
The same measure, in the same setting: next, B17: 5e-08 M.
The molecule B18 registered an Agonist activity (EC50, M) greater than 1e-06 M.
Still for that read-out and setting: the figure for B19 is greater than 1e-06 M; for B20 it is greater than 1e-06 M; for B21 it is greater than 1e-06 M.
The same measure, in the same setting: next, B22: greater than 1e-06 M; B23: greater than 1e-06 M; B24: greater than 1e-06 M.

The next assay deals with T2, human GIPR (human), P48546.
Test: not given
On to B1, for which the Agonist activity (EC50, M) came to 2.3e-12 M.
The molecule B2 had an Agonist activity (EC50, M) of 2.2e-12 M.
With B3, the Agonist activity (EC50, M) was 7e-12 M.
Turning to B4, the Agonist activity (EC50, M) worked out at 1.9e-12 M.
Same read-out and setting: the figure for B5 is 1.9e-11 M.
Same read-out and setting: the figure for B6 is 3.5e-12 M; for B7 it is 6.6e-09 M.
In the case of B8, the Agonist activity (EC50, M) is 2.6e-10 M.
On the same count and under the same terms, the figure for B9 is 4.4e-12 M; for B10 it is 1.7e-12 M; for B11 it is 2.8e-12 M.
The molecule B12 displayed an Agonist activity (EC50, M) of 7.8e-10 M.
B13 showed an Agonist activity (EC50, M) of 3e-12 M.
The same measure, in the same setting: the figure for B14 is 3e-12 M; for B15 it is 4.8e-12 M; for B16 it is 6.3e-12 M.
On the same count and under the same terms, next, B17: 4.1e-12 M.
On the same count and under the same terms, next, B18: 9.5e-11 M; B19: 1.7e-12 M.
For B20, the Agonist activity (EC50, M) was 9.9e-11 M.
The same measure, in the same setting: next, B21: 9.2e-12 M.
On the same count and under the same terms, next, B22: 1.7e-12 M.
On the same count and under the same terms, the figure for B23 is 4.2e-12 M; for B24 it is 7.2e-12 M.

The target in another assay is T2, human GIPR (human), P48546. The assay is described as follows: [125I]GIP displacement, hGIPR VLP.
In turn, B1 displayed an IC50 of 1.2 nM.
With B2, the IC50 was 2.1 nM.
Same read-out and setting: the figure for B3 is 19 nM; for B4 it is 1.2 nM.
Still for that read-out and setting: the figure for B5 is 3.4 nM; for B6 it is 2.3 nM.
On the same count and under the same terms, the figure for B7 is 50 nM; for B8 it is 15 nM.
In the case of B9, the IC50 came out at 7.1 nM.
On the same count and under the same terms, the figure for B10 is 1.6 nM; for B11 it is 2.1 nM; for B12 it is 8.1 nM.
Same read-out and setting: the figure for B13 is 2.7 nM; for B14 it is 2.1 nM.
The same measure, in the same setting: next, B15: 2.3 nM; B16: 2.4 nM.
In the case of B17, the IC50 worked out at 2.7 nM.
The same measure, in the same setting: the figure for B18 is 4.1 nM; for B19 it is 0.98 nM.
The same measure, in the same setting: next, B20: 3.4 nM; B21: 2.6 nM.
For B22, the IC50 is 1.6 nM.
Same read-out and setting: next, B23: 3 nM; B24: 2.4 nM.

A word on the IC50: it is the point on the concentration scale where inhibition reaches its midpoint. A low value points to higher potency.

The values are drawn from patent US20180298070A1, “PEPTIDE COMPOUND” (Takeda Pharmaceutical Company Limited, published 2018).
